The values that follow are results of earlier work, collected in paper PMC12787518.

One may read the pKa as the negative logarithm of the acid dissociation constant.

In data set [1] the target is Asp70 (UniProt position 70, KLFNQDVDAAV). As to conditions: folded (native, Asp70-His31 salt bridge formed).
The target in data set [2] is His31 (UniProt position 31, TIGIGHLLTKS).

Like-named read-outs stand apart in the source and are kept apart here.

With “T4 lysozyme (Enterobacteria phage T4 (Tequatrovirus T4))”, the pKa is given as 0.5 in data set [1]; 9.1 in data set [2] (folded (native, Asp70-His31 salt bridge formed)); 6.8 in data set [2] (unfolded (before folding, no salt bridge), inferred from the wording 'during ... folding').
